Results taken from PMC4228697.

How the values were obtained:
Test in all cases: SPR
[1] = molecular target: CCR2 (wheat-germ proteoliposome) (human) (UniProt P41597)
[2] = molecular target: CXCR1 (wheat-germ proteoliposome) (human) (UniProt P25024)
[3] = molecular target: CXCR2 (wheat-germ proteoliposome) (human) (UniProt P25025)
[4] = molecular target: C5aR (wheat-germ proteoliposome) (human) (UniProt P21730)
Chain of UniProt P21730 (P21730 whole entry): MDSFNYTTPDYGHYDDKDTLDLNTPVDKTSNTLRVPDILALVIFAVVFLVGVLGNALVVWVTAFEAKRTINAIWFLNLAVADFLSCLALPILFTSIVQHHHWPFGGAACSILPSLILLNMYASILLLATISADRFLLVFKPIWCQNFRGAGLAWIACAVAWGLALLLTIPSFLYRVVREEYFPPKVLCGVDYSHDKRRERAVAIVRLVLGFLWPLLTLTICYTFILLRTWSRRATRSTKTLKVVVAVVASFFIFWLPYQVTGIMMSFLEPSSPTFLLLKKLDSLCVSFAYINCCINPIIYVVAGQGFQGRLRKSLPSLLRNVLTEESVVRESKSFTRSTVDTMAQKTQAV

Chain of UniProt P25024 (P25024 whole entry): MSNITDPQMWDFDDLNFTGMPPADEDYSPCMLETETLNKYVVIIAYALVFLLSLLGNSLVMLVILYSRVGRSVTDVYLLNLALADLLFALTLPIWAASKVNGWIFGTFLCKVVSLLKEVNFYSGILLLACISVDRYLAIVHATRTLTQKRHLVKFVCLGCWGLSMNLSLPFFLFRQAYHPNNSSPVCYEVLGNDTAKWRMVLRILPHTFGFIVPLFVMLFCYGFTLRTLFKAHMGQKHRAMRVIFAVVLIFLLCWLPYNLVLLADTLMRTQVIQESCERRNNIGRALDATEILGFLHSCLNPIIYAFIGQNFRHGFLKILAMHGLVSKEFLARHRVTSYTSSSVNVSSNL
Chain of UniProt P25025 (P25025 whole entry): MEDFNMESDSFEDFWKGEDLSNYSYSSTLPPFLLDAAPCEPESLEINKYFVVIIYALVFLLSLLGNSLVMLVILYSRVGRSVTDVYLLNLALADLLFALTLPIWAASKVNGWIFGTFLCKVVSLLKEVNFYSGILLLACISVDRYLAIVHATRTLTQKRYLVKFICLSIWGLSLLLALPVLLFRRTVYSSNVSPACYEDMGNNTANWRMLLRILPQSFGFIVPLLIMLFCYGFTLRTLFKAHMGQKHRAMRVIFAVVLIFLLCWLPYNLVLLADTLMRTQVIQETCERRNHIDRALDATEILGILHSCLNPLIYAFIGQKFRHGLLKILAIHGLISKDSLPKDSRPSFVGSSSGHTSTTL

Substance | Kd [1] [nM] | Kd [2] [nM] | Kd [3] [nM] | Kd [4] [nM]
γ-Hemolysin component HlgA (from UniProt P0A074 30-309) (natural protein) | 3.51 | 5.69 | 27.2 | –
MCP-1 (from UniProt P13500 24-99) (ligand) | 0.84 | – | – | –
γ-Hemolysin component HlgC (from UniProt Q07227 30-315) (natural protein) | – | – | – | 5.64
